Consider one molecule from PMC8534766.

This assay concerns the target SP-1, serine protease from Clostridium ramosum DSM1402 (Clostridium ramosum DSM1402).

Starred links: 1 amine or outer side, 2 acyl side, 3 side chain; linkers in the order of their positions; H or OH if unused. Benzoyl(5-NH,2-NO2) = O=C(c1cc(N[*:1])ccc1[N+](=O)[O-])[*:2]

For the molecule {ABZ}-IMAR-{Benzoyl(5-NH,2-NO2)-NH2} [ABZ-Ileu-Met-Ala-Arg-ANB-NH2], the KM of steady-state cleavage of the substrate by SP-1 (20 nM SP-1, 0.05-2 mM substrate, 20 mM Tris, 300 mM NaCl, 1 mM CaCl2, pH 8, room temperature; Michaelis-Menten fit) is 0.000191 M.
